Assay results published in IntAct's records for PubMed 22037600.

B1: Endoribonuclease ZC3H12A (Mus musculus), Q5D1E7 (parent)
chain: MSDPCGTKPVQESNPTMSLWSLEDRHSSQGRPQPDQDPVAKEAPTSELQMKVDFFRKLGYSSSEIHSVLQKLGVQADTNTVLGELVKHGSATERECQALTAPSPQPPLVPRGGSTPKPSTLEPSLPEEDREGSDLRPVVIDGSNVAMSHGNKEVFSCRGILLAVNWFLERGHTDITVFVPSWRKEQPRPDVPITDQHILRELEKKKILVFTPSRRVGGKRVVCYDDRFIVKLAFESDGVVVSNDTYRDLQGERQEWKRFIEERLLMYSFVNDKFMPPDDPLGRHGPSLDNFLRKKPLPSEHRKQPCPYGKKCTYGIKCRFFHPERPSRPQRSVADELRANALLSPPRTPVKDKSSQRPSPASQSSSVSLEAEPGSLDGKKLGARSSPGPHREGSPQTCAPAGRSLPVSGGSFGPTEWLAHTQDSLPYTSQECLDSGIGSLESQMSELWGVRGGSPGESGPTRGPYAGYHSYGSKVPAAPSFSPFRPAMGAGHFSVPTDYVPPPPTYPSREYWSEPYPLPPPTPVLQEPQRPSPGAGGGPWGRVGDLAKERAGVYTKLCGVFPPHLVEAVMRRFPQLLDPQQLAAEILSYKSQHLSE
partner: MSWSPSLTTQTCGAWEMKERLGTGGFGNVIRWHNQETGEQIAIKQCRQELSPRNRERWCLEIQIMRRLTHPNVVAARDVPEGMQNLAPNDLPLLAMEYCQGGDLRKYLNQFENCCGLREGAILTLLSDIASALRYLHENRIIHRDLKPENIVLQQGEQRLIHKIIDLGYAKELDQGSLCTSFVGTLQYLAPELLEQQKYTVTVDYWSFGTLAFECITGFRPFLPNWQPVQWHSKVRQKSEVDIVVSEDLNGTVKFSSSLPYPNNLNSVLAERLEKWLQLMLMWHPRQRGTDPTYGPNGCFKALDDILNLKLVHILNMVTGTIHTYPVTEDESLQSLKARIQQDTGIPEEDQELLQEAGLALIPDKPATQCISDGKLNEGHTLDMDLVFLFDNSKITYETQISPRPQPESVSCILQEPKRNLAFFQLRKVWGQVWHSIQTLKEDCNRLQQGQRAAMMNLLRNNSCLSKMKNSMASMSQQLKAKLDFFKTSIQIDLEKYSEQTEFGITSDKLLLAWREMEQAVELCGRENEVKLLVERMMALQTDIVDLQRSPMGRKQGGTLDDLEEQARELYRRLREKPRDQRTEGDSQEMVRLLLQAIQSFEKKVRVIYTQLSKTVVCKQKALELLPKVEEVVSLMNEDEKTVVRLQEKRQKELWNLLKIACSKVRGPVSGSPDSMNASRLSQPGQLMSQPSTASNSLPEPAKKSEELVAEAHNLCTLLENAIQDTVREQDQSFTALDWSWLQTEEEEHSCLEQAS

Variants of: B1
Details: with ikkb_human IKBKB

| effect of a mutation on the interaction | Variant |
| --- | --- |
| decreasing interaction | S439A |
| decreasing interaction | S435A |
| decreasing interaction | S435A;S439A |
